The results in this text go back to publication PMC7962898.

A word on the stoichiometry N: it is the number of molecules, sites or subunits per partner or assembly.

This assay addresses Porcine Epidemic Diarrhea Virus Spike ectodomain, Sf9 expressed (Porcine epidemic diarrhea virus (PEDV) USA/Colorado/2013) (UniProt Q91AV1). Briefly: cryo-EM structure.

As to “Porcine Epidemic Diarrhea Virus Spike ectodomain, Sf9 expressed (from UniProt Q91AV1 26-1322) (domain or fragment)”, the stoichiometry N turned out to be 3.
